Source: paper PMC11623273
Where two headings read alike, the source gives them in different places.

Legend:
Fab AP33 (Mus musculus) [1] = settings: other; Disulfide-linked heavy and light Fab chains. No candidate fits and the paper prints no AP33 sequence. PDB 4GAG (murine AP33 Fab with the E2 412-423 peptide) is cited from memory; entities 1 and 2 are assumed to be the antibody chains, and the peptide entity is excluded. The C-terminal double Strep tag on the heavy chain is omitted. The constant-region species of the S2-expressed Fab is not given; modification not given
Fab AP33 (Mus musculus) [2] = settings: domain or fragment; Disulfide-linked heavy and light Fab chains. No candidate fits and the paper prints no AP33 sequence. PDB 4GAG (murine AP33 Fab with the E2 412-423 peptide) is cited from memory; entities 1 and 2 are assumed to be the antibody chains, and the peptide entity is excluded. The C-terminal double Strep tag on the heavy chain is omitted. The constant-region species of the S2-expressed Fab is not given; modification not given

| Binder | Kd (Fab AP33 (Mus musculus) [1]) [nM] | Kd (Fab AP33 (Mus musculus) [2]) [nM] |
| --- | --- | --- |
| E2_S2_1 (design 2K6Z_01), epitope scaffold displaying HCV E2 epitope I (protein) MGSFTEGWVRFSPGPNAAAYLTLENPGDLPLRLVGARTPVAERVELWETQLINTNGSWHIGSRPVPFLEVPPKGRVELSPGGYYFHLLGLKRPLKAGEEVELDLLFAGGKVLKVVLPVEARGSENLYFQ | 44.9 |  |
| soluble HCV E2 ectodomain (sE2) (protein) GTTTVGGAVARSTNVIAGVFSHGPQQNIQLINTNGSWHINRTALNCNDSLNTGFLAALFYTNRFNSSGCPGRLSACRNIEAFRIGWGTLQYEDNVTNPEDMRPYCWHYPPKPCGVVPARSVCGPVYCFTPSPVVVGTTDRRGVPTYTWGENETDVFLLNSTRPPQGSWFGCTWMNSTGFTKTCGAPPCRTRADFNASTDLLCPTDCFRKHPDATYIKCGSGPWLTPKCLVHYPYRLWHYPCTVNFTIFKIRMYVGGVEHRLTAACNFTRGDRCDLEDRDRSQLSPLLHSTTEWAILPCTYSDLPALSTGLLHLHQNIVDVQYMYGLSPAITKYVVR |  | 58.4 |
